The source of these data is PMC9672406 (The Journal of Biological Chemistry, 2022).

This data set deals with the molecule itself. The experiment in a line: AUC.

B1: MqnA from Streptomyces coelicolor (chorismate dehydratase), wild type (enzyme)
chain: DNSRTRPRVGHIQFLNCLPLYWGLARTGTLLDFELTKDTPEKLSEQLVRGDLDIGPVTLVEFLKNADDLVAFPDIAVGCDGPVMSCVIVSQVPLDRLDGARVALGSTSRTSVRLAQLLLSERFGVQPDYYTCPPDLSLMMQEADAAVLIGDAALRANMIDGPRYGLDVHDLGALWKEWTGLPFVFAVWAARRDYAEREPVITRKVHEAFLASRNLSLEEVEKVAEQAARWEAFDEDTLAKYFTTLDFRFGAPQLEAVTEFARRVGPTTGFPADVKVELLKP
By stoichiometry N is commonly meant the number of molecules, sites or subunits per partner or assembly. B1: the “stoichiometry N” value is 2.
